Results published in publication PMC11578589.

Tests used:
[1] = system: IGF2BP2 KH34 (IGF2BP2KH34) (Homo sapiens); experiment: MST; conditions: MST: 50 mM phosphate pH 7.0, 150 mM NaCl, 0.05% Tween 20, room temperature, 20 min incubation, 250 nM labeled RNA
[2] = system: IGF2BP2 RRM (IGF2BP2RRM) (Homo sapiens); experiment: MST; conditions: MST: 50 mM phosphate pH 7.0, 150 mM NaCl, 0.05% Tween 20, room temperature, 20 min incubation, 250 nM labeled RNA

Substance	Kd [1] [nM]	Kd [2] [nM]
ZIKV 5' NTR	203	–
ZIKV 3' NTR	418	1600
